The values below come from publication PMC8198530, “The Odd Faces of Oligomers: The Case of TRAF2-C, A Trimeric C-Terminal Domain of TNF Receptor-Associated Factor” (International Journal of Molecular Sciences, 2021).

This data set concerns the molecule itself. Put plainly: dynamic light scattering; TRAF2-C 4 uM in kinase buffer (20 mM Tris-HCl pH 7.6, 150 mM NaCl, 10% glycerol); 20-35 °C, where the particle distribution is sharp and mono-disperse.

B1: TRAF2-C, C-terminal domain truncated form of TNF Receptor Associated Factor 2 (TRAF2) (domain or fragment, human, UniProt Q12933 310-501, looked up)
chain: DQDKIEALSSKVQQLERSIGLKDLAMADLEQKVLEMEASTYDGVFIWKISDFARKRQEAVAGRIPAIFSPAFYTSRYGYKMCLRIYLNGDGTGRGTHLSLFFVVMKGPNDALLRWPFNQKVTLMLLDQNNREHVIDAFRPDVTSSSFQRPVNDMNIASGCPLFCPVSKMEAKNSYVRDDAIFIKAIVDLTGL
notes: human TRAF2, C-terminal domain (TRAF2-C), residues 310-501; It describes the protein as a trimer in equilibrium with dimers and monomers; also called TRAF2-C domain; source: E. coli BL21 (DE3), purified (NiNTA, Sephadex G25)
With B1, the binding result is reported as “binds”.
